Measurements from article PMC5456370, “Bacterial co-expression of human Tau protein with protein kinase A and 14-3-3 for studies of 14-3-3/phospho-Tau interaction” (PLoS ONE, 2017).

Target: the molecule itself
Test: native gel or EMSA; purified 14-3-3 isoforms (14 μM per monomer) without or with PKA (2 μM) in 50 mM Hepes-NaOH pH 7.3, 10 mM NaCl, 4 mM MgCl2, 60 μM ATP, 2 h at 30°C; non-denaturing 15% gel, pH 8.6; dimer and monomer regions of the gel

B1: full-length human 14-3-3γ (natural protein, UniProt P61981 1-247, looked up)
chain: MVDREQLVQKARLAEQAERYDDMAAAMKNVTELNEPLSNEERNLLSVAYKNVVGARRSSWRVISSIEQKTSADGNEKKIEMVRAYREKIEKELEAVCQDVLSLLDNYLIKNCSETQYESKVFYLKMKGDYYRYLAEVATGEKRATVVESSEKAYSEAHEISKEHMQPTHPIRLGLALNYSVFYYEIQNAPEQACHLAKTAFDDAIAELDTLNEDSYKDSTLIMQLLRDNLTLWTSDQQDDDGGEGNN
notes: human 14-3-3 protein gamma, Uniprot P61981, full length
Does B1 bind?
Result: binds

B2: untagged human 14-3-3σ devoid of the C-terminal flexible peptide (residues 232-248) (domain or fragment, UniProt P31947 1-231, looked up)
chain: MERASLIQKAKLAEQAERYEDMAAFMKGAVEKGEELSCEERNLLSVAYKNVVGGQRAAWRVLSSIEQKSNEEGSEEKGPEVREYREKVETELQGVCDTVLGLLDSHLIKEAGDAESRVFYLKMKGDYYRYLAEVATGDDKKRIIDSARSAYQEAMDISKKEMPPTNPIRLGLALNFSVFHYEIANSPEEAISLAKTTFDEAMADLHTLSEDSYKDSTLIMQLLRDNLTLWT
notes: human 14-3-3 protein sigma, Uniprot P31947, residues 1-231 out of 248; also called 14-3-3σΔC; σΔC; source: purified (ammonium sulfate fractionation, anion-exchange and gel-filtration chromatography); also E. coli BL21(DE3), co-expressed with Tau and PKA, in lysate
Does B2 bind?
Result: binds
